Results: article PMC9023282
“And” between values parts separate entries of the source, which are not always exact repeats. Identical values can stand only once.

Target: GINS complex (Gins51 and Gins23), wild type (Thermococcus kodakarensis)
Assay: native gel or EMSA

Substance: family D DNA polymerase (PolD), DP1 and DP2 (complex)
- stoichiometry N (PolD per GINS): 2 and 1
